Results as given in article PMC11026164 (Nature Nanotechnology, 2024).

Experiments:
[1] = ζ-potential / isoelectric point by DLS (Zetasizer); assay type: physicochemical
Experimental: HD diameter, polydispersity index and ζ-potential were measured using the Zetasizer Nano ZS instrument (Malvern […]) at Sydney Analytical, the University of Sydney. CSIRO samples were measured on a Malvern Instruments Zetasizer Nano instrument ZEN3600 with a 4 mW 633 nm He–Ne gas laser. […] HD diameter and polydispersity index measurements were performed using backscatter (173°) data collection with three repeats of 12–15 measurements per sample. All the samples were analysed in disposable folded capillary cells. […] 1 mg/ml solutions (5 mL total volume) were prepared for each solution. pH was adjusted to pH 3 with 1 M HCl using a pH meter. Images were collected as the pH was raised by the addition of 1 M NaOH. Images show the product solution at each pH. […] Data expressed as the mean ± s.d. (n = 3 independent batches). ζ-potential of each sample was measured using DLS. Data expressed as the mean ± s.d. (n = 3 independent batches).

[2] = Insulin loading capacity on QDs (14C-INS, dialysis); assay type: physicochemical
Experimental: Three individual experiments (batches) were performed per group.

[3] = HPLC–MS of released insulin; assay type: physicochemical; conditions: release by hydrolysis for 28 days at 23 °C
Experimental: Cleavage of CS/GS and removal of QDs were promoted by enzyme co-incubation (i). […] Release was promoted by hydrolysis for 28 days at 23 °C. […] Oleic acid was used as a positive control of cellular uptake and activity. […] Data points, mean ± s.d. shown [n = 3 independent experiments (a and b); n = 3 biologically independent cells (d and e) and one-way ANOVA with Tukey’s correction; α = 0.05]. a and b created with BioRender.com.

[4] = tested on: C57BL/6J mice; experiment: Oral glucose tolerance test (oGTT); assay type: in vivo; conditions: n = 5; for effect of constituents on oGTT AUC: QD 0.6 µg, QD-INS 0.6 µg, 20 IU/kg, CS/GS 10 µg, QD-CS/GS 0.6 µg, 10 µg, insulin alone given orally 100 IU/kg, 15 min before glucose
Experimental: oGTT was performed following a 4-h fast. BG was measured using a handheld glucometer using Accu-Chek proforma strips. Blood was collected following a tail snip. BG was collected prior and for 90 min after an oral bolus of 2 g kg^–1 glucose solution. The AUC was determined based on the mmol l^–1 × min.

[5] = Appearance and solubility by optical density at pH 3 to 9; assay type: physicochemical; conditions: 1 mg/ml solutions (5 mL), pH raised from 3 to 9 with 1 M NaOH, mean of n = 3 independent batches
Experimental: 1 mg/ml solutions (5 mL total volume) were prepared for each solution. pH was adjusted to pH 3 with 1 M HCl using a pH meter. Images were collected as the pH was raised by the addition of 1 M NaOH. Images show the product solution at each pH. […] Data expressed as the mean ± s.d. (n = 3 independent batches). ζ-potential of each sample was measured using DLS. Data expressed as the mean ± s.d. (n = 3 independent batches).

[6] = Blood pharmacokinetics of 14C-INS in mice; assay type: in vivo, C57BL/6J mice; conditions: subcutaneous 2 IU kg^–1, 14C-INS in blood, n = 3
Experimental: (§1) For biodistribution studies, the mice were not fasted before either a subcutaneous injection of ^14C-INS (100,000 DPM, 2 IU kg^–1) or a gavage of QD-^14C-INS–CS/GS or ^14C-INS (100,000 DPM, 20 IU kg^–1). Gavage was performed using an oesophageal gavage needle and delivered in a single rapid dose (100 µl). Blood samples were collected from a tail snip (20 µl) over 0–8 h. Mice were euthanized by a single intraperitoneal injection of 100 mg kg^–1 ketamine and 10 mg kg^–1 xylazine in saline at 0.5, 2.0 and 24.0 h post-gavage. Then, 200–250 mg of tissue samples was collected from the liver, spleen, kidneys, lungs, muscles, fat and small intestine (duodenum) along with 100 μl of blood.
(§2) Tissue and blood samples were weighed, mixed with 1 ml solvable solution and incubated at 60 °C for 4 h to dissolve. Then, 0.2 ml of 30% H2O2 was added to reduce the dark colour saturation. […] Samples were mixed with 10 ml scintillation fluid (five measurements per sample). Baseline measurements were collected from control mice (n = 3) that were not treated with radioactive samples. Data were collected and analysed as disintegrations per minute.

[7] = Tissue biodistribution of 14C-INS in mice; assay type: in vivo, C57BL/6J mice; conditions: for tissue distribution, in words: SC-INS 2 IU kg^–1 s.c., QD-INS–CS/GS and Oral-INS 20 IU kg^–1 by gavage
Experimental: as §1, §2

[8] = tested on: NOD/ShiLtJ mice; experiment: Insulin tolerance test (ITT) in NOD diabetic mice; assay type: in vivo
Experimental: Ten-week-old female NOD/ShiLtJ mice were obtained from the Animal Resource Centre in Perth. Animals were housed at the ANZAC Research Institute animal house on a 12-h light/dark cycle and provided with ad libitum access to food and water; 20–25 °C; 50–60% relative humidity; and bedding, ventilated caging systems and enrichment as per the ARRIVE guidelines. NOD/ShiLtJ mice were monitored weekly for BG changes, with mice developing T1D between weeks 12 and 24 in 90% of female mice. Diabetic mice were identified following two repeat BG measurements at >11.1 mmol l^–1.
ITT was performed with/without a 4-h fast. BG was measured using a handheld glucometer using Accu-Chek proforma strips. Blood was collected from a tail snip. […] The AUC was determined based on mmol l^–1 × min.

[9] = tested on: NOD mice; experiment: Two-week chronic dosing in NOD mice; assay type: in vivo, NOD/ShiLtJ mice; conditions: chronic 2-week subcutaneous dosing
Experimental: Early and moderate diabetic mice were given a single treatment of SC-INS (1 IU kg^–1) or QD-INS–CS/GS (25 IU kg^–1), whereas late diabetics were given 4 and 100 IU kg^–1, respectively. An ITT was performed with BG collected at 0.25, 0.50, 0.75 and 1.00 h. […] BG was recorded daily and was maintained below 11.1 mmol l^–1 for the duration of treatment. […] BG was recorded daily and was maintained between 15 and 25 mmol l^–1 for the duration of treatment. […] Data points, mean ± s.d. shown (n = 5 biologically independent animals; one-way ANOVA with Tukey’s correction (a) and two-tailed unpaired t-test; α = 0.05 (c, e and f)).

[10] = tested on: STZ-treated rats; experiment: ITT in STZ-treated rats; assay type: in vivo, Wistar rats; conditions: SC-INS 5–40 IU kg^–1; QD-INS–CS/GS 10–150 IU kg^–1; n = 5
Experimental: After a month of acclimation and animal handling, rats were given a single intraperitoneal injection of STZ (65 mg kg^–1) and provided with high-glucose water (10%) for 2 days. Animals were monitored and BG checked for 10 days post-injection. Diabetic rats were identified following two repeat BG measurements at >11.1 mmol l^–1.
ITT was performed as above; rats were treated with 5–40 IU kg^–1 SC-INS or 10–150 IU kg^–1 QD-INS–CS/GS. All the ITT data presented in this manuscript used n = 5 mice per group.

[11] = tested on: STZ-treated rats; experiment: Chronic dosing in STZ-treated rats; assay type: in vivo, Wistar rats; conditions: 40 IU kg^–1 day^–1 subcutaneous
Experimental: Rats were maintained on either treatment for 2–6 weeks, with BG measured morning and evening (prior and 1 h post-injection).
Following experimentation, the rats were euthanized by a single intraperitoneal injection of 75 mg kg^–1 ketamine and 10 mg kg^–1 xylazine in saline. Blood, liver and pancreas tissue samples were collected. Plasma was collected and analysed for biochemistry and lipid parameters as above.

[12] = Stability by NMR; assay type: physicochemical; conditions: 1 mg/ml in MQ water, 23 °C, 60% humidity with light exposure, 7 and 28 days
Experimental: Individual sample stock was prepared in 90% MQ water and 10% D2O at pH 7. For NMR data acquisition, 550 µl samples from each stock were transferred to a 5 mm NMR tube. All one-dimensional ^1H experiments (water suppression pulse sequence, zgesgp; time domain, 32 K; relaxation delay, 2 s; spectral width, 12.5 ppm; number of scans, 256) were collected on a Bruker 800 MHz spectrometer using a Z-gradient TCI probe at 298 K. Two-dimensional [^1H,^1H] NOESY spectra were collected on a 600 MHz spectrometer with a cryoprobe at 298 K. Data were collected and processed using TopSpin. The water offset was set to 4.697 ppm. Before Fourier transformation from the time domain to the frequency domain, the time-domain data were zero filled twice, and an exponential decay function with a line-broadening factor of 5 Hz was multiplied. Data were processed using TopSpin. For stability measurements, the samples were stored at a lab temperature of ~295 ± 2 K.
Extended Data Fig. 4 NMR characterization and stability of QD-INS–CS/GS and 2D [^1H,^1H]-NOESY NMR characterization of CS/GS. […] Stability of samples were evaluated at 1 mg/ml, in MQ water solution, 23 °C, 60% humidity with light exposure for 7 and 28 days. […] (b) Left panel: 2D [^1H, ^1H]-NOESY spectrum of maltose. Right panel: 2D [^1H, ^1H]-NOESY spectrum of chitosan and glucose (CS/GS) copolymer. […]

[13] = 0.5 h, subcutaneous 2 IU kg^–1, n = 3
[14] = 2 h, subcutaneous 2 IU kg^–1, n = 3

Question: Which results are given for “QD-INS: insulin bound to 3-MPA-capped Ag2S QDs by EDC/NHS chemical crosslinking”?
Answer: ζ-potential at pH 7 [1]: negative; ζ-potential between pH 3 and pH 6 ([1]; n = 3 independent batches): near-zero; maximum insulin retention (loading capacity of insulin onto QDs) ([2]; 14C-INS, 10 kDa dialysis, QDs 0.5–35.2 µg ml^–1, insulin 5.0 µg ml^–1, n = 3 batches): 80%; insulin molecules per QD ([2]; based on the molar ratios): 1–2; released insulin present as monomer [3]: 87.5%; effect of constituents on oGTT AUC [4]: no differences compared to controls

Question: With insulin human recombinant as the substance, how does the “pH at which the material is insoluble” value [5] read?
Answer: The value was 5.

Question: What about the Cmax [6] of the same substance?
Answer: Its Cmax is 0.1 IU ml^–1.

Question: And the Tmax [6]?
Answer: The Tmax was 15 min.

Question: What about the T½ [6] of the same substance?
Answer: The T½ was 15 min.

Question: And the “distribution in the blood” value [7, 13]?
Answer: The value was 40%.

Question: And the “distribution in the liver” value [7, 13]?
Answer: The value was 40%.

Question: What about the “distribution in the muscles/fat” value [7, 13] of the same substance?
Answer: The value was 20%.

Question: What about the “distribution in the kidneys” value [7, 14] of the same substance?
Answer: The value was 10%.

Question: What about the “distribution in the liver” value [7, 14] of the same substance?
Answer: Its value is 50%.

Question: What about the “distribution in the small intestine” value [7, 14] of the same substance?
Answer: The value was 20%.

Question: What about the “tissue distribution, in words” value ([7]; listed as Oral-INS) of the same substance?
Answer: The value was “remained in the small intestine”.

Question: And the “tissue distribution, in words” value ([7]; listed as SC-INS)?
Answer: Its value is “greater distribution in the muscles and fat”.

Question: What about the “effect of constituents on oGTT AUC” value [4] of the same substance?
Answer: Its value is “No effect on AUC”.

Question: What about the “hypoglycaemia (BG < 3.0 mmol l^–1)” value ([4]; high dose 5 IU kg^–1 subcutaneous) of the same substance?
Answer: The value was “induced hypoglycaemia”.

Question: And the “effect of escalating dosage on BG in ITT” value ([8]; SC-INS 0–2 IU kg^–1, QD-INS–CS/GS 0–50 IU kg^–1 by gavage)?
Answer: The value was “dose-dependent reduction in BG”.

Question: What about the “time to decrease of BG” value ([8]; subcutaneous 1 IU kg^–1) of the same substance?
Answer: Its value is at most 15 min.

Question: And the “reduction in ITT AUC” value ([8]; subcutaneous 1 IU kg^–1, single dose, n = 5)?
Answer: The value was 40%.

Question: What about the “time of return of BG to baseline post-treatment” value [9] of the same substance?
Answer: The value was 8 h.

Question: What about the “dose dependence in ITT” value [10] of the same substance?
Answer: The value was “dose-dependent effect”.

Question: What about the “time of return of BG to baseline” value [11] of the same substance?
Answer: Its value is at most 8 h.

Question: What about the “stability of samples by NMR” value [12] of the same substance?
Answer: The value was “minimal changes”.
